Test results published in patent publication US20040175799.

Legend:
[1] = target: Collagen, Type I, bovine Achilles tendon, P02453
[2] = target: α-Chymotrypsinogen A, bovine pancreas, P00766
[3] = target: Muscle acetone powder, chicken breast
[4] = target: T1, α-Lactoalbumin, bovine milk, P00711
T1 chain: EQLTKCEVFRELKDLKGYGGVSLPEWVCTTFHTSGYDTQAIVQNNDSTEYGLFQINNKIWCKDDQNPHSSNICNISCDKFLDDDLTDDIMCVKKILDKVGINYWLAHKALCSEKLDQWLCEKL

[5] = target: T2, β-Casein, bovine milk, P02666
T2 chain: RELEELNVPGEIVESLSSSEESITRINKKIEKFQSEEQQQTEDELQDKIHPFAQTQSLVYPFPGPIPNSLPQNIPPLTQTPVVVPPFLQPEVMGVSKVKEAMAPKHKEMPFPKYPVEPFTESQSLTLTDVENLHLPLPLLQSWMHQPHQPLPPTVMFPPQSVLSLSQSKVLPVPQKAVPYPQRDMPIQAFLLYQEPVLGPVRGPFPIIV

[6] = target: Gelatin, Type B, bovine skin
[7] = target: T3, β-Lactoglobulin, bovine milk, P02754
T3 chain: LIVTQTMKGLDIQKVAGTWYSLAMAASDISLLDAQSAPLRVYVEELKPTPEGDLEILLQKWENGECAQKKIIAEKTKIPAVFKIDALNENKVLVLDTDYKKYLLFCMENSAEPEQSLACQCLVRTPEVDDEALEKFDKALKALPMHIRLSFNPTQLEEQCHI

[8] = target: T4, RNase A, bovine pancreas, P61823
T4 chain: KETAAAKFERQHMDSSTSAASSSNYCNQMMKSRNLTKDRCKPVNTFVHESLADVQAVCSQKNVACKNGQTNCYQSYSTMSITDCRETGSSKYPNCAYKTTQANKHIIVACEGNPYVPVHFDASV

[9] = target: Bovine serum albumin, bovine, P02769
[10] = target: Aprotinin, bovine lung, P00974
[11] = target: T5, Myoglobin, horse skeletal muscle, P68082
T5 chain: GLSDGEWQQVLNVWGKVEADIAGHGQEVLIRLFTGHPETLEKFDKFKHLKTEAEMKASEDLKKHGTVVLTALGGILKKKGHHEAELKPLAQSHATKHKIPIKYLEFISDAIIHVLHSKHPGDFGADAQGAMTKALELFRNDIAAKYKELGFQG

[12] = target: T6, Ovalbumin, chichen egg, P01012
T6 chain: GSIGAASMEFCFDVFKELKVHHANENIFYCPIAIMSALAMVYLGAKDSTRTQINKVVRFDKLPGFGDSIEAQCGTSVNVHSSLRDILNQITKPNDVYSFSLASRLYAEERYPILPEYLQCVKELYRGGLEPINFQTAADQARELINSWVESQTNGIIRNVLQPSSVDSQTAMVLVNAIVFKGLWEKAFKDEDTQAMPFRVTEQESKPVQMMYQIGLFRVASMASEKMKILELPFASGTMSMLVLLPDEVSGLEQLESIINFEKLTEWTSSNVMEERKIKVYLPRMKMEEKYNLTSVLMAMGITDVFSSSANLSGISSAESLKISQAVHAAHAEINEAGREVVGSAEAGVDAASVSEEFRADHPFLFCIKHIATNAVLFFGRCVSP

[13] = target: Actin, bovine muscle, P68138

Bovine serum albumin, bovine, P02769, sequence (P02769 25-607): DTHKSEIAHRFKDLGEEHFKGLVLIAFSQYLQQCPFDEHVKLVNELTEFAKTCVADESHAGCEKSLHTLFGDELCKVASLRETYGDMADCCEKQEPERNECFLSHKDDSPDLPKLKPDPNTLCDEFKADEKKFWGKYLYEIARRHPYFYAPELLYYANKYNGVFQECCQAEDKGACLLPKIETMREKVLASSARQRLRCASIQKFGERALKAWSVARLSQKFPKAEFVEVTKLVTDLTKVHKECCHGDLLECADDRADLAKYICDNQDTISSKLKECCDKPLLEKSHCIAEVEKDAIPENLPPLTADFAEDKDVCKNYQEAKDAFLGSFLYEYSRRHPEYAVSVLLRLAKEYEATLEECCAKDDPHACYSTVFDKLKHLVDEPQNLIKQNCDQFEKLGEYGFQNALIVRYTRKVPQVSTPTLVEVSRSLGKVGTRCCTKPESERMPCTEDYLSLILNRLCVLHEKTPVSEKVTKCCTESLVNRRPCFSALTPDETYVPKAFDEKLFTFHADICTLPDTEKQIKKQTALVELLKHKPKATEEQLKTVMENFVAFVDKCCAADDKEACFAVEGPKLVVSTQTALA
Collagen, Type I, bovine Achilles tendon, P02453, sequence (P02453 162-1217, chain 1 of 2): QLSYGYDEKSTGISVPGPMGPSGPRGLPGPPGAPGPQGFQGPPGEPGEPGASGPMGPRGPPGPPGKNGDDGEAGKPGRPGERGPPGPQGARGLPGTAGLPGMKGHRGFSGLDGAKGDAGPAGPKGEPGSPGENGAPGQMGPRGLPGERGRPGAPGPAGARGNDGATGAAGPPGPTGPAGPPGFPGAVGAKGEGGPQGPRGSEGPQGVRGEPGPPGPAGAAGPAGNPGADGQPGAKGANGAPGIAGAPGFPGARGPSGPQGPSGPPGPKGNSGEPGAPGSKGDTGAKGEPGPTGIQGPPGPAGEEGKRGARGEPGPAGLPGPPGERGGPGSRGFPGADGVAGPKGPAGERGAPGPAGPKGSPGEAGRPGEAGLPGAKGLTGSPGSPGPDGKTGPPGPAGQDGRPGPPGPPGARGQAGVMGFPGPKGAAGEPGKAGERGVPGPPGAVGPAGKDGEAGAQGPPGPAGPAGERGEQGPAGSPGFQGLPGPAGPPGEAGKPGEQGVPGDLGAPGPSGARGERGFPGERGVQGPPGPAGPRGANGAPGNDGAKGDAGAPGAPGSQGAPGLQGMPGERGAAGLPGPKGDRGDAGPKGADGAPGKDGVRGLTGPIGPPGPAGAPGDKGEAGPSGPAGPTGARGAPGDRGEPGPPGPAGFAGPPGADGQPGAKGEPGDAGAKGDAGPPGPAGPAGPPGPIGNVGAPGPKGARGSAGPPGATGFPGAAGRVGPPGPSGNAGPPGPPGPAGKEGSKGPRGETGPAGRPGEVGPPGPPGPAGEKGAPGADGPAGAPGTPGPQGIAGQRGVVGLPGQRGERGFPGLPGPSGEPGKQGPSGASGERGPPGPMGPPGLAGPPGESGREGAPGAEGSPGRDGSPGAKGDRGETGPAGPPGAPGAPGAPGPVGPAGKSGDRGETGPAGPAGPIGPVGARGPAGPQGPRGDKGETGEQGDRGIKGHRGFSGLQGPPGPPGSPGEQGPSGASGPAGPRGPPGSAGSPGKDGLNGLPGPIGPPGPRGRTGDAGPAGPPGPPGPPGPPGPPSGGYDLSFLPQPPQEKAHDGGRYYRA
Collagen, Type I, bovine Achilles tendon, P02453, sequence (P02453 other isoform, or with tags, fused parts or gaps, chain 2 of 2): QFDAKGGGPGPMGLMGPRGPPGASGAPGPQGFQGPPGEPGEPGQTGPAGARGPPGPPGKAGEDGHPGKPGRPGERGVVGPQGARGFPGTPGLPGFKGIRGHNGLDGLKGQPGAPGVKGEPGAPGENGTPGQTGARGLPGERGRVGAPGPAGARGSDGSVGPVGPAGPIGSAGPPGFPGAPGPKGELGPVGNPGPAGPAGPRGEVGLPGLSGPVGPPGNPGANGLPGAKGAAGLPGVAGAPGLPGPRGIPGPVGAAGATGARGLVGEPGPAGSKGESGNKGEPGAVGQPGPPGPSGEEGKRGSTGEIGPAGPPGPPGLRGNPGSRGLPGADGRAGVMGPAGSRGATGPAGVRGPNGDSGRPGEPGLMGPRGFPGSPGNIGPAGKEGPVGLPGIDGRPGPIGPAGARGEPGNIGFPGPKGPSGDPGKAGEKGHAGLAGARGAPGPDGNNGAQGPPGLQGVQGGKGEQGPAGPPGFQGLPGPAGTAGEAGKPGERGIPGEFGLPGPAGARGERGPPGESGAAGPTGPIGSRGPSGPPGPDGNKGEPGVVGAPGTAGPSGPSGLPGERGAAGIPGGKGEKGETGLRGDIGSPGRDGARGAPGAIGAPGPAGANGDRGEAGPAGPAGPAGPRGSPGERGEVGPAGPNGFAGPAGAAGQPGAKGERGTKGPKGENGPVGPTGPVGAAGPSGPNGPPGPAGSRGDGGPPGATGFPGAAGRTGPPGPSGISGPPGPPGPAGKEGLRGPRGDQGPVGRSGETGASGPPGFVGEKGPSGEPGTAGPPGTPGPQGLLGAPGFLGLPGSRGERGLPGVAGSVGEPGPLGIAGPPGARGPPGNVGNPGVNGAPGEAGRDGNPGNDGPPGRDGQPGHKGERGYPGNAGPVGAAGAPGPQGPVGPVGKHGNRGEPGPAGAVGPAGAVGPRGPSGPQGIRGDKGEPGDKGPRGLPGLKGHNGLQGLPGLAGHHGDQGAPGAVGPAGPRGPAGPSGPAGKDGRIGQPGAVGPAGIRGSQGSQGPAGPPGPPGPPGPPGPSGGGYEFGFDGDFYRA

B1: protein-deamidating enzyme purified from Chryseobacterium sp. No. 9670 (protein)
chain: LASVIPDVATLNSLFNQIKNQSCGTSTASSPCITFRYPVDGCYARAHKMRQILMNNGYDCEKQFVYGNLKASTGTCCVAWSYHVAILVSYKNASGVTEKRIIDPSLFSSGPVTDTAWRNACVNTSCGSASVSSYANTAGNVYYRSPSNSYLYDNNLINTNCVLTKFSLLSGCSPSPAPDVSSCGF
Protein B1 has an Ammonia releasing rate [1] of 0.177 µmol/min/mg, an Ammonia releasing rate [2] of 0.65 µmol/min/mg and an Ammonia releasing rate [3] of 0.21 µmol/min/mg. For the same protein, the deamidation ratio (soybean protein) was 20% in soybean protein, the Ammonia releasing rate (Gliadin, what (wheat)) was 5.47 µmol/min/mg and the Ammonia releasing rate [4] was 0.836 µmol/min/mg. For the same protein, the deamidation ratio (whey protein) was 23% in whey protein, the Ammonia releasing rate (Soy protein isolate) was 1.17 µmol/min/mg and the Ammonia releasing rate [5] was 18.1 µmol/min/mg. It also gave an Ammonia releasing rate [6] of 0.696 µmol/min/mg, an Ammonia releasing rate (α-Casein, bovine milk) of 19.1 µmol/min/mg and an Ammonia releasing rate [7] of 0.728 µmol/min/mg. It also gave an Ammonia releasing rate [8] of 2.91 µmol/min/mg, an Ammonia releasing rate (Zein, corn) of 0.655 µmol/min/mg and an Ammonia releasing rate [9] of 0.009 µmol/min/mg. The Ammonia releasing rate [10] was 0.224 µmol/min/mg, the Ammonia releasing rate [11] was 0.014 µmol/min/mg and the Ammonia releasing rate [12] was 0.005 µmol/min/mg. It also gave a deamidation ratio (milk caseinate) of 60% in caseinate, an Ammonia releasing rate (Gluten, wheat) of 7.2 µmol/min/mg and a deamidation ratio (Gluten, wheat) of 74% in wheat gluten. For the same protein, the deamidation ratio (albumen protein) was 7% in albumen protein and the Ammonia releasing rate [13] was 0.45 µmol/min/mg.
